Like-named read-outs stand apart in the source and are kept apart here.
What was measured:
[1] = target: paclitaxel stabilized microtubules (polymerized bovine brain tubulin) (bovine) (UniProt Q6B856); experiment: co-sedimentation
[2] = target: paclitaxel stabilized microtubules (polymerized bovine brain tubulin) (bovine) (UniProt Q6B856); experiment: co-sedimentation; remark: listed apart in the source
[3] = target: paclitaxel stabilized microtubules (polymerized bovine brain tubulin) (bovine) (UniProt Q6B856); experiment: co-sedimentation; remark: listed apart in the source
[4] = target: subtilisin-treated microtubules (C-terminal tails of α- and β-tubulin removed) (bovine) (UniProt Q6B856)
subtilisin-treated microtubules (C-terminal tails of α- and β-tubulin removed) (bovine), sequence (Q6B856 whole entry, looked up): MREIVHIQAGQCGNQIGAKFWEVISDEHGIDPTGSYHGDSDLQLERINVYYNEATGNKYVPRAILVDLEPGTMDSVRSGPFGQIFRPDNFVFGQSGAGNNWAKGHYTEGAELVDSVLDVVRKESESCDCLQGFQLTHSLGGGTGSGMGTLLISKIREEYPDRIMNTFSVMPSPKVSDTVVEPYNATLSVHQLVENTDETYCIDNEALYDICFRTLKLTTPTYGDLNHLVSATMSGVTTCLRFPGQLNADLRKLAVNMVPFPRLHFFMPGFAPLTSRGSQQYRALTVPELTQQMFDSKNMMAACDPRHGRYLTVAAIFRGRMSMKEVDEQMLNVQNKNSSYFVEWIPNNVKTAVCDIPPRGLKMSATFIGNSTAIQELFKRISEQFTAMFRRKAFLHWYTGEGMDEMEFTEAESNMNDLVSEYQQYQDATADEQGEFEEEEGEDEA

paclitaxel stabilized microtubules (polymerized bovine brain tubulin) (bovine), sequence (Q6B856 whole entry, looked up): as above

Kd [1]: 0.16 µM | Kd [2]: 0.5 µM | Kd [3]: 0.11 µM | K0.5,S-MT of the steady-state ATPase on subtilisin treated microtubules [4]: 1.1 µM
Substance: catalytic domain plus the putative neck linker of human kinesin-like DNA-binding protein (KID), Gly5-Leu379 (domain or fragment)

Reference: paper doi:10.1101/520460
